# Reference: IntAct's records for PubMed 19293378
# B1: Apoptosis regulator BHRF1 (Epstein-Barr virus (strain B95-8) (HHV-4)), P03182 (parent)
# chain: MAYSTREILLALCIRDSRVHGNGTLHPVLELAARETPLRLSPEDTVVLRYHVLLEEIIERNSETFTETWNRFITHTEHVDLDFNSVFLEIFHRGDPSLGRALAWMAWCMHACRTLCCNQSTPYYVVDLSVRGMLEASEGLDGWIHQQGGWSTLIEDNIPGSRRFSWTLFLAGLTLSLLVICSYLFISRGRH
# B2: Apoptosis regulator BHRF1 (Epstein-Barr virus (strain B95-8) (HHV-4)), P03182 (parent)
# chain: B1 chain
# partner: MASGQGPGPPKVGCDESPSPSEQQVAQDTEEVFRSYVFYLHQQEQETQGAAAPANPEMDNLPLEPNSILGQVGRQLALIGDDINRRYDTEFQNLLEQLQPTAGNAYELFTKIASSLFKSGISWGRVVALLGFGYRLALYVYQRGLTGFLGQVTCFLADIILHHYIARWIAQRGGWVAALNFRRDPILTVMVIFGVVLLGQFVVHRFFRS
# Variants of: B1
# Conditions: with Bcl2l11, O54918
# Sequence of Bcl2l11, O54918 (O54918 whole entry): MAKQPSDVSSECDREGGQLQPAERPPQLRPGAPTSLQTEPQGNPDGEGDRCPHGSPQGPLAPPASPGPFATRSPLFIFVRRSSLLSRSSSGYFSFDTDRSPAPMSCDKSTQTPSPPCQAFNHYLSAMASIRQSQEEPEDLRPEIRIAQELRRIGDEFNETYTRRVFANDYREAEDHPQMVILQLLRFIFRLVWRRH
row,Variant,effect of a mutation on the interaction
1,G99A,decreasing interaction strength

# Variants of: B2
# Conditions: with bak_mouse Bak1, O08734
row,Variant,effect of a mutation on the interaction
1,L98A;G99A;R100A,disrupting interaction strength
2,G99A,decreasing interaction strength
3,L98A,decreasing interaction strength
4,R100A,decreasing interaction strength
